Binding data for 2 sequences are collected here from article PMC12022260.

The data set addresses T1, His-FleQ (Azotobacter vinelandii AEIV) (UniProt C1DQF1).
T1 sequence: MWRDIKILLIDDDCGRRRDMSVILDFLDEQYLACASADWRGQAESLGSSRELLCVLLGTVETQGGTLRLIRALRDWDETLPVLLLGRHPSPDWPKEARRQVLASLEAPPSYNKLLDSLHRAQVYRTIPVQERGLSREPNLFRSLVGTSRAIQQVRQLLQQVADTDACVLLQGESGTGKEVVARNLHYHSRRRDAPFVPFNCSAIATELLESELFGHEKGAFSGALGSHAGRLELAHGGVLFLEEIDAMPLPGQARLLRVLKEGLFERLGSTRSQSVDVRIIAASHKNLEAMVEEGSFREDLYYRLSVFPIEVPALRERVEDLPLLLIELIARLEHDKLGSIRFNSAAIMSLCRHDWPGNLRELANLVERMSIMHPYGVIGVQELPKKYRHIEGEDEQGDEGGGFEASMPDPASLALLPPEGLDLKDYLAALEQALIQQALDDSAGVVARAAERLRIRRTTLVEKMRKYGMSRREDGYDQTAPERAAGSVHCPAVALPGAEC
The data set can be described thus: EMSA. The note with it: 10 mM Tris pH 8, 8 mM Mg acetate, 50 mM KCl, 10 ug/ml BSA, 5% glycerol; 100 ng DNA in 20 ul; room temperature 20 min; 6% native acrylamide gel, 0.5x-1x TBE …. On the technique in general: A gel shift assay detects complexes by their altered migration in electrophoresis.

As for “CCGAAAATGCTGATACGCATTGCGTTCACCTCGTCCTTATTTAACGAAAAGTCGACGACTAAAACCCTTGGTCGTCACATTGCCGGCGGCCTTCAAGGGAAATTTGCAGGCCGAATTATAGTCAATAAAATGTCGTGCCAAATGAGCTGGCGTTAAAAGGCAGGTTGCAAGGGATGCTTTATAACTGCTCAAGCGATCCATGTTCG (double strand) [algD proximal region]”, the binding entry is on record as “binds”.
In the case of “GCGAATTCGGACGCCGCGAGTAAAACGAAAAAGCAAGCCGCCTGAACCCACACTTGCGCTCCCGGCGTTTTGTACCATGCTTTTCCTGAATCATTGTGCTAAGGAGAAAAGTATGAATAAAAGAGGAGCGTTGTTGAGCCTGCTGGATCCAGG (double strand) [yebF regulatory region]” it was “no binding”.
